# B1: MEKK1 cleavage fragment C (protein)
# chain: GHQDSLQAVAPTSCLENSSLEHTVHREKTGKGLSATRLSASSEDISDRLAGVSVGLPSSTTTEQPKPAVQTKGRPHSQCLNSSPLSHAQLMFPAPSAPCSSAPSVPDISKHRPQAFVPCKIPSASPQTQRKFSLQFQRNCSEHRDSDQLSPVFTQSRPPPSSNIHRPKPSRPVPGSTSKLGDATKSSMTLDLGSASRCDDSFGGGGNSGNAVIPSDETVFTPVEDKCRLDVNTELNSSIEDLLEASMPSSDTTVTFKSEVAVLSPEKAENDDTYKDDVNHNQKCKEKMEAEEEEALAIAMAMSASQDALPIVPQLQVENGEDIIIIQQDTPETLPGHTKAKQPYREDAEWLKGQQIGLGAFSSCYQAQDVGTGTLMAVKQVTYVRNTSSEQEEVVEALREEIRMMGHLNHPNIIRMLGATCEKSNYNLFIEWMAGGSVAHLLSKYGAFKESVVINYTEQLLRGLSYLHENQIIHRDVKGANLLIDSTGQRLRIADFGAAARLASKGTGAGEFQGQLLGTIAFMAPEVLRGQQYGRSCDVWSVGCAIIEMACAKPPWNAEKHSNHLALIFKIASATTAPSIPSHLSPGLRDVAVRCLELQPQDRPPSRELLKHPVFRTTW
# B2: HA-tagged full length mouse MEKK1 (196 kDa; plasmid MEKK1.cp4, expressed in HEK293 cells) (protein)
# chain: MGYPYDVDYASMAAAAGDRASSSGFPGAAAASPEAGGGGGGGGALQGSGAPAAGAAGLLREPGSAGRERADWRRRQLRKVRSVELDQLPEQPLFLAAASPPCPSTSPSPEPADAAAGASRFQPAAGPPPPGAASRCGSHSAELAAARDSGARSPAGAEPPSAAAPSGREMENKETLKGLHKMEDRPEERMIREKLKATCMPAWKHEWLERRNRRGPVVVKPIPIKGDGSEVNNLAAEPQGEGQAGSAAPAPKGRRSPSPGSSPSGRSVKPESPGVRRKRVSPVPFQSGRITPPRRAPSPDGFSPYSPEETSRRVNKVMRARLYLLQQIGPNSFLIGGDSPDNKYRVFIGPQNCSCGRGAFCIHLLFVMLRVFQLEPSDPMLWRKTLKNFEVESLFQKYHSRRSSRIKAPSRNTIQKFVSRMSNSHTLSSSSTSTSSSENSIKDEEEQMCPICLLGMLDEESLTVCEDGCRNKLHHHCMSIWAEECRRNREPLICPLCRSKWRSHDFYSHELSSPVESPASLRAVQQPSSPQQPVAGSQRRNQESSFNLTHFGTQQIPSAYKDLAEPWIQVFGMELVGCLFSRNWNVREMALRRLSHDVSGALLLANGESTGNSGGGSGGSLSAGAASGSSQPSISGDVVEACCSVLSIVCADPVYKVYVAALKTLRAMLVYTPCHSLAERIKLQRLLRPVVDTILVKCADANSRTSQLSISTVLELCKGQAGELAVGREILKAGSIGVGGVDYVLSCILGNQAESNNWQELLGRLCLIDRLLLEFPAEFYPHIVSTDVSQAEPVEIRYKKLLSLLTFALQSIDNSHSMVGKLSRRIYLSSARMVTAVPAVFSKLVTMLNASGSTHFTRMRRRLMAIADEVEIAEVIQLGVEDTVDGHQDSLQAVAPTSCLENSSLEHTVHREKTGKGLSATRLSASSEDISDRLAGVSVGLPSSTTTEQPKPAVQTKGRPHSQCLNSSPLSHAQLMFPAPSAPCSSAPSVPDISKHRPQAFVPCKIPSASPQTQRKFSLQFQRNCSEHRDSDQLSPVFTQSRPPPSSNIHRPKPSRPVPGSTSKLGDATKSSMTLDLGSASRCDDSFGGGGNSGNAVIPSDETVFTPVEDKCRLDVNTELNSSIEDLLEASMPSSDTTVTFKSEVAVLSPEKAENDDTYKDDVNHNQKCKEKMEAEEEEALAIAMAMSASQDALPIVPQLQVENGEDIIIIQQDTPETLPGHTKAKQPYREDAEWLKGQQIGLGAFSSCYQAQDVGTGTLMAVKQVTYVRNTSSEQEEVVEALREEIRMMGHLNHPNIIRMLGATCEKSNYNLFIEWMAGGSVAHLLSKYGAFKESVVINYTEQLLRGLSYLHENQIIHRDVKGANLLIDSTGQRLRIADFGAAARLASKGTGAGEFQGQLLGTIAFMAPEVLRGQQYGRSCDVWSVGCAIIEMACAKPPWNAEKHSNHLALIFKIASATTAPSIPSHLSPGLRDVAVRCLELQPQDRPPSRELLKHPVFRTTW
# Target: recombinant kinase inactive SEK1 (SEK1 K→M)
row,Protein,phosphorylation of SEK1 K→M by immunoprecipitates (in vitro kinase assay)
1,B1,a stronger SEK1 phosphorylation signal was detected
2,B2,When the full length MEKK1 protein was immunoprecipitated by the 12CA5 antibody it had measureable autophosphorylation and activity towards SEK1

# Reference: patent publication US20020055130
